According to publication PMC4516985, “Transactivation of human osteoprotegerin promoter by GATA-3”:

Columns and labels:
GATA-3 [1] = biological target: T1, GATA-3 (Homo sapiens, UniProt P23771 1-443); experiment: competition; excess unlabeled mutant did not compete with biotin-G3RE1; protein source conflict as above; LightShift EMSA Optimization & Control Kit (Thermo 20148) per manufacturer, 6% DNA retardation gel; buffer, salt, pH and temperature not stated; conditions: protein: commercial; label: none
GATA-3 [2] = biological target: T1, GATA-3; experiment: competition; excess unlabeled mutant did not compete with biotin-G3RE2; protein source conflict as above; LightShift EMSA Optimization & Control Kit (Thermo 20148) per manufacturer, 6% DNA retardation gel; buffer, salt, pH and temperature not stated; conditions: protein: commercial; label: none

T1 sequence (P23771 whole entry): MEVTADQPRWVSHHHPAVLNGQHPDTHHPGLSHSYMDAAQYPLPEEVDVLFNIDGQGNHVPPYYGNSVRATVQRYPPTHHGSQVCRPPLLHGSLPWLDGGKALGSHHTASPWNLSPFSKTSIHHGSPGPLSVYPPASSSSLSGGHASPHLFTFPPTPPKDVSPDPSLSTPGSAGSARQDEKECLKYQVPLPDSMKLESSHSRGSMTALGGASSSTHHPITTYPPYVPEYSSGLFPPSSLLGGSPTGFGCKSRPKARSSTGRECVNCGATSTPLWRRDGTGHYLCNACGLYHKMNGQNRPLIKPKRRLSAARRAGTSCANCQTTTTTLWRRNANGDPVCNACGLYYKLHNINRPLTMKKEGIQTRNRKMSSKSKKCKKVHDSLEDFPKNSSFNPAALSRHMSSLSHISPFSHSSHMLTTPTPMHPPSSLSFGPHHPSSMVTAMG

B1: mutant G3RE1 probe (dsDNA)
DNA 1: TAGGAAGCTCCCATGGCAATAGCCCT
DNA 2: AGGGCTATTGCCATGGGAGCTTCCTA
GATA-3 [1]
  binding result: no binding

B2: mutant G3RE2 probe (dsDNA)
DNA 1: TAACTACCCCAGAGTTGAAGGAGTGA
DNA 2: TCACTCCTTCAACTCTGGGGTAGTTA
GATA-3 [2]
  binding result: no binding
